Source: PMC2946813

Target: human factor Xa (human) (UniProt P00742)
Assay: prothrombinase activity titration

Sequence of UniProt P00742 (P00742 41-179, chain 1 of 2): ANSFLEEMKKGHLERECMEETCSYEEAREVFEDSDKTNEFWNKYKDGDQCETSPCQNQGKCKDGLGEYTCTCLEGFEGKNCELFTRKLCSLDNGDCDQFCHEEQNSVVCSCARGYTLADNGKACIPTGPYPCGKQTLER
Sequence of UniProt P00742 (P00742 235-488, chain 2 of 2): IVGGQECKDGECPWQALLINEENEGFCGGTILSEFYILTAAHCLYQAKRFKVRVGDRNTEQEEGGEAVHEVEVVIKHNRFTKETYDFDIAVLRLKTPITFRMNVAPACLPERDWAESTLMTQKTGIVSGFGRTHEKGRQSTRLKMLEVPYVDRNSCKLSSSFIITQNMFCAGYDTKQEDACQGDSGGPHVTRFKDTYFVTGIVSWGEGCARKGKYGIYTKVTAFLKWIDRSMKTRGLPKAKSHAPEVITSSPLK

plasma-derived human factor V activated with α-thrombin (from UniProt P12259 29-737) (natural protein)
Kd: 0.67 nM
